{
  "source": "paper PMC1810427",
  "about": "“MLN51 Stimulates the RNA-Helicase Activity of eIF4AIII”",
  "key": {"[1]": {"biological_target": "eIF4AIII;MLN51 SELOR;Y14;Magoh (human;human;human, UniProt P38919;O15234;Q9Y5S9;P61326 1-411;137-283;50-174;1-146, |||)", "sequence (P38919 whole entry, chain 1 of 4, other chains not shown)": "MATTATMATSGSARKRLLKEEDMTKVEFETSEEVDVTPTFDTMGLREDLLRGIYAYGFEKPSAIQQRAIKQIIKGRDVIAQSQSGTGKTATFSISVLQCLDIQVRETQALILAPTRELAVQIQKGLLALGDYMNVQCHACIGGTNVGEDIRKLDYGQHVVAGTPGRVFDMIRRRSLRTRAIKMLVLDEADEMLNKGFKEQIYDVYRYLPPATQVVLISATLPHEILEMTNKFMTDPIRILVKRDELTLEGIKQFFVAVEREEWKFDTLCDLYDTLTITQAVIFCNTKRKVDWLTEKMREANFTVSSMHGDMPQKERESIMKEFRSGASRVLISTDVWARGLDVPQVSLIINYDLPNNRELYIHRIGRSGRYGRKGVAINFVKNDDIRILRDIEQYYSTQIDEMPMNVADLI", "sequence (O15234 137-283, chain 2 of 4, other chains not shown)": "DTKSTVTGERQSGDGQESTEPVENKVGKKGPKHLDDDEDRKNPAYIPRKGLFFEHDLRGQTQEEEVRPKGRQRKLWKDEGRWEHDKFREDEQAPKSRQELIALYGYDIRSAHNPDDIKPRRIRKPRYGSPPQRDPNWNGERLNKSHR", "sequence (P61326 whole entry, chain 4 of 4, other chains not shown)": "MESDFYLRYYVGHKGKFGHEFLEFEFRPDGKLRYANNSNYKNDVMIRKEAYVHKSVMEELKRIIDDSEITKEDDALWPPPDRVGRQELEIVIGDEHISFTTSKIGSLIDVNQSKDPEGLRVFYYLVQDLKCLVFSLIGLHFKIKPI", "test": "SPR; ATP; 5 mM Mg2+; SPR (Biacore 2000): 40 mM Tris-HCl pH 7.8, 50 mM NaCl, 4 mM DTT, 5 mM MgCl2, 0.002% Tween 20, 30 ul/min, 10-160 nM protein; temperature not stated", "settings": "protein: recombinant;recombinant;recombinant;recombinant; tags: N-terminal His6;GST cleaved off (PreScission);none;N-terminal His6; copies: 1;1;1;1; label: 5' biotin; single strand"}, "[2]": {"biological_target": "eIF4AIII;MLN51 SELOR (human;human?, UniProt P38919;O15234 1-411;137-283, |)", "sequence (P38919 whole entry, chain 1 of 2)": "as the sequence (P38919 whole entry, chain 1 of 4, other chains not shown) above", "sequence (O15234 137-283, chain 2 of 2)": "as the sequence (O15234 137-283, chain 2 of 4, other chains not shown) above", "test": "SPR; AMPPNP; 5 mM Mg2+; SPR (Biacore 2000): 40 mM Tris-HCl pH 7.8, 50 mM NaCl, 4 mM DTT, 5 mM MgCl2, 0.002% Tween 20, 30 ul/min, 10-160 nM protein; temperature not stated", "settings": "protein: recombinant;recombinant; tags: N-terminal His6;GST cleaved off (PreScission); copies: 1;1; label: 5' biotin; single strand"}, "[3]": {"biological_target": "MLN51 SELOR (UniProt O15234 137-283)", "sequence (O15234 137-283)": "as the sequence (O15234 137-283, chain 2 of 4, other chains not shown) above", "test": "SPR; no nucleotide; 5 mM Mg2+; SPR (Biacore 2000): 40 mM Tris-HCl pH 7.8, 50 mM NaCl, 4 mM DTT, 5 mM MgCl2, 0.002% Tween 20, 30 ul/min, 10-160 nM protein; temperature not stated", "settings": "protein: recombinant; tags: GST cleaved off (PreScission); label: 5' biotin; single strand"}, "[4]": {"biological_target": "Y14;Magoh (human;human, UniProt Q9Y5S9;P61326 50-174;1-146, |)", "sequence (P61326 whole entry, chain 2 of 2, other chains not shown)": "as the sequence (P61326 whole entry, chain 4 of 4, other chains not shown) above", "test": "SPR; no nucleotide stated; 5 mM Mg2+; SPR (Biacore 2000): 40 mM Tris-HCl pH 7.8, 50 mM NaCl, 4 mM DTT, 5 mM MgCl2, 0.002% Tween 20, 30 ul/min, 10-160 nM protein; temperature not stated", "settings": "protein: recombinant;recombinant; tags: none;N-terminal His6; copies: 1;1; label: 5' biotin; single strand"}},
  "data": [
    {"binder": "AUGUCAUUCGAGUACAGUCUGUUCAGCUAGUCUCC (ssRNA)", "note": "[35-mer ssRNA]", "values": [
      {"measurement": "Kd", "setting": "[1]", "value": "~10", "unit": "nM"},
      {"measurement": "Kd", "setting": "[2]", "value": "~10", "unit": "nM"},
      {"measurement": "Kd", "setting": "[3]", "value": "~1000", "unit": "nM"},
      {"measurement": "Kd", "setting": "[4]", "value": "~2000", "unit": "nM"}
    ]}
  ]
}
